From the nanobody polyreactivity screen of Harvey et al. (2022)

Assay: yeast display, Sf9 membrane polyspecificity reagent, FACS + sequencing; frameworks hold sequencing errors
Procedure, shortened: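 Galactose induction of a Saccharomyces cerevisiae BJ5465 synthetic nanobody display library ran 36–48 hours. The cells were then stained for 1 hour at 4 °C with 10% biotinylated, detergent-solubilized Sf9 membrane reagent, pulled down on streptavidin microbeads and FACS-sorted into low and high (top ~1%) gates on expression and reagent-binding fluorescence. Labels for polyreactivity follow the gate of origin.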

| Sequence | polyreactivity (PSR sort gate) |
| --- | --- |
| QVQLVESGGGLVQAGGSLRLSCAASGRIFDLYTMGWYRQAPGKERELVAAIRWSDGSTYYADSVKGRFTISRDNAKNTDYLQMNSLKPEDTAVYYCAADSRTSYYNDDYDYWGQGTQVTVSS | low polyreactivity |
| QVQLVESGGGLVQAGGSLRLSCAASGSIFYLYAMGWYRQAPGKERELVATITRGGSTNYADSVKGRFRISRDNAKNTDYVQMNSLKPEDTARYYCNARFFKPPYSKWSSRFDYWGQGTQVTVSS | high polyreactivity |
| QVQLVDSGGGLVQAGGSLRLSCAASGSIFRPYARGWYRQAPWKERELVASIRWYDGSTYYADSVKGRFTSSRDNAMNTVYLQMNSLKPEDSAVYYCAADYYSQLAGIFDYWGQGTQVTVSS | low polyreactivity |
| QVQRVESGGGLVQAGGSLRLSCAASGSTFWFNAMGWYRQAPGKERELVAAITYRGASTNYADSVKGRFTISRDNAKNTVYLQMNSLKPEDTAVYYCATRPTWRPVPDSDVSTYGYWGQGTQVTVSS | low polyreactivity |
| QVQLVESGGGLVQAGGSLRLSCAASGSIFSFYAMGWYRQAPGKERELVAAISSSGGSTYYADSVKGRFTISRDNAKNTVYLKMNSLKPEDTAVYYCAARFAYGGGYWGQGTQVTVSS | high polyreactivity |
| QVQLVESGGGLVQAGGSLRLSCAASGSIFYRYAMGWYRQAPGKERELVAAISSNGVSTYYADSVKGRFTISRDNAKNTVYLQMTSLNPEDTAVYYCARDVYASPRLYTSRYNYWGQGTQVTVSS | low polyreactivity |
| QVQLVESGGGLVQAGGSLRISCAASGFTFGRYAMGWYRQAPGKEREFVASISARGGNTFYADSVKGRFTISRDNAKNTVYLQMTSLKPEDTAVYYCNALTYFKRSEYYWGQGTQVTVSS | high polyreactivity |
| QVQLVESGGGLVQAGGSLRLSCAASGRTFRYYAMGWYRQAPGKERELVARISWRGDSTRYADSVKGRFTISRDNAKNTVYVQMNSLKPEDTAVYYCAADTRFLVGPDKYGYWGQGTQVTESS | high polyreactivity |
| QVQLQESGGGLVHPGGSLRLSCAASCSISHYIFMGWYRQAPGKEREFVAGIGYGGTTNYADSVKGRFTISRDNAKNTVYLQMNSLKPEDTAMYYCAAREATEFYLYYWGQGTQVTVSS | low polyreactivity |
| QVQLVESGGGLVQAGGSLRLSCAASGFIFTWYDMGWYRQAPGKERELVAAISRSGGSTYYADSVKGRFTISRDNAKNTVYLQMNSLKPEDTAVYYCIVYRSKKRYGWGEDDYWGQGSQVTVSS | high polyreactivity |
| QVQLVESGGGLVQAGGSLRLSCAASGYIVLVYAMGWYRQAPGKERELFASITRGTRTYYADSVKGRFTISRDNAKNTVYLQMNSLKPEDTAVYYCAAEHSGYPVAFYITGYGYDYWGQGTQVTVSS | low polyreactivity |
| QVQLVESGGGLVQAGGSLRLSCAASGFIFGPYAMGWYRTAPGKERELVAAITYSSGSTYYADSVKGRFTISRDNAKNTVYLQMNSLKPEDTAVYYCNAEFWYETLYEYDYWGQGTQVTVSS | high polyreactivity |
| QVQLVESGGGLVQAGGSLRLSCAASGFIFYEYAMGWYRQAPGKERELVAAISSGGDTNYADSVKGRFTISRDNANNTVYLQMNSLKPEDTAVYYCAKDYSDPGWAEYDYWGQGTQVTVSS | low polyreactivity |
| QVQLVESGGGLVQAGGSLRLSCAASGFTFFRYAMGWYRQAPGKERELVAAISYSGGNTYYADSVKGRFTISRDNAKNTVYLQMNSLKPEDTAVYYCNAVHFWKYDYWGQGTQVTVSS | high polyreactivity |
| QVQLVESGGGLVQAGGSLRLSCAASGRTFNIYAMGWYRQAPGKERELVAAITWRSGSTYYADSVKGRFTISRDNAKNTVYLQMNSLKPEDTAVYYCAAEQWSSVPEFDYWGQGSQVTVSS | high polyreactivity |
| QVQLVESGGGLVQAGGSLRLSCAASGRTFRYNTMGWYRQAPGKERELVASISSGDRTYYADSVKGRFTISRDNAKNTVYLQMNSLKPEDTAVYYCAKDVGYWYYYWGQGTQVTVSS | high polyreactivity |
| QVQLVESGRGLVQAGGSLRLSCAASGFMIGINAMGWYRQAPGKERELVDAISTGDRTNYAHSVKGRFTISRDNAKNTVYLQMNSLKPEDTAVYYCAKDWRRNRPYEWTYDYWGQGTQVTVSS | low polyreactivity |
| QVQLVESGGGLVQAGGSLRLSCAAYGSILRTYAMGWYRQAPGKERELVAAISSSGGSTYYADSVKGRFTISRDNAKNTVYLQMNSLKPEDTAVYYCAARYRYYYTRYDYWGQGTQVTVSS | high polyreactivity |
| QVHLVESGGGLVQAGGSLRLSCAASGRIFVKYAMGCYRQAPGKERELVAAIRSGGSTYYADSVKGRFTISRDNAKNTVYLQMNSLKPEDTAVYYCAADRNKHHYYTEPYDYWGQGTQVTVSS | low polyreactivity |
| QVQLVESGGGLVQAGGSLRLSCAASGRTMAVYAMGWDRQAPGKEREVVAAISWSGGTTYYADSVKGRFTISRDNAKNTVYLQMNSLKAEDTAVYYCAADSYTEVDYWGQGTQVTVSS | low polyreactivity |
| QVQLVESGGGLVQAGGSLRLSCAASGLIIRYYAMGWYRQARGKERELVAAISYNGGSTYYADSVKGRFTISRDNAKNTVYLQMNSLKPEDTAVYYCAARLYGRYGYWGQGTQVTVSS | high polyreactivity |
| QVQLVESGGGLVQAGGSLRLSCAASGSIFKSYAMGWYRQAPGKERELVAVISDSGSTYYADSVKGRFTISRDNAKNTVYLQMNSLKPEDTAVYYCRCRGRRNEYWGQGTQVTVSS | high polyreactivity |

| Sequence | polyreactivity (PSR sort gate) |
| --- | --- |
| QVQLVESGGGLVHAGGSLRLSCAASGFTFRSYTMGWYRQAHGKERELVAAITSRGTSTYYADSVKGRFTISRDNAKNTVYLQMNSLKPEDTAVYYCAAPIYNGYASWQVYYWGQGTQVTVSS | high polyreactivity |
| QVQLVESGGRLVQAGGSLRLSCAASGYIVTIYAMGWYRQAPGKEREFVAAITWSGGRTYYADSVKGRFTISRDNPKNTVYIQRNSLTPEDTAVYYCDARVANYLSQMYYWGQGTQVTVSS | high polyreactivity |
| QVQIVESGGGLVQAGCILRLSCAASGSTFYVNAMGWYRQAPGKEWELVAVISTGGSTYYADSVKGRFTISRDNAKNTVYLQMNSLKPEDTAVYYCAKRDLPDCSGTPNVIPFDYWGQGTQVTVSS | low polyreactivity |
| QVQLVESGGGLVQAGGSLRLSCAASGRIFVYYVMGWYRQAPGKERELVASITFRGSRTYYADSVKGRFTISRDNAKNTVYLQMNSLKTEETAGYYCNADVWASGSRGEGYWGQGSQVTVSS | low polyreactivity |
| QGQLGDSGGGLVQAGGSLRLSCAASGLTFWGKVMGWSRPAPGKERELVAAITSGGSTYYADSVKGRFTISRDNAKNTVFLQMNSQKPEDTAVYYCATAFYYSYSEYYYWGQGTQVTVSS | high polyreactivity |
| QVQLVESGGGLVQAGGSLRLSCAATGSIFRYYAMGWYRQAPGKERELVAAISWSGGSTYYSDSVKGRFTISRDNAKNTVYLQMNSLKPEDTAVYYCNVKRYGGRSDYWGQGSQVTVSS | high polyreactivity |
| QVQLVESGGGLVQAGGSLRLSCAASGYIFSSYAMGWYRQAPGKERELVAAISWTGGTYYADSVKGRFTISRDNAKNTVYLQMNSLNPEDTAVYYCAVRYKRKGSGYRTNAYDYWGQGTQVTVSS | high polyreactivity |
| QVQLVESGGGLVQAGGSLRLSCAASGLTFGRNVMGWYRQAPGKERELVAAISWRGDSTYYADSVKGRFTISRDNAKNTGYLQMNSLKPEDTAVYYCAVRYYRGSVASGSDYWGQGTQVTVSS | high polyreactivity |
| QVQLVESGGGLVQAGGSLRLSCAASGSTFRGFAMGWYRQAPGKERELVAAISSRGASTHYADSVKGRFTISRDNANNTVYLQLTSLKPEDTAVYYCNKRQVFVSTGVYEFDYWGQGTQVTVSS | low polyreactivity |
| QVQLVESGGGLVQAGGSLRLSCAASGSIFYRYVMGWYRQAPGKERELVAVITGSGGNTYYADSVKGRFTISRDNAKNTVYLQMNSLKPEDTAVYYCAARYYTSQYGRHSRYPSEYWGQGTQVTVSS | high polyreactivity |
| QVQLVESGGGLVQAGGSLRLTCAASGYTFYSYAMGWYRQAPGKERELVAAIRTGGGTNYADSVKGRFTISRDNAMNTVYLQMNSLKPEDTAVYYCAADSFDPAGHVDYWGQGTQVTVSS | low polyreactivity |
| QVQLVESGGGLVQAGGSLRLSCAASGSTFHPNTMGWYRQAPGKERELGARISSGGSTNYADSVKGRFTISRDNAKNTVYLQMNSLKPEDTAVYYCAARTAFSGARGRGGYWGQGTQVTVSS | high polyreactivity |
| QVQLVESGGGLVQAGGSLRLSCAASGLTFSIYAMGWYRPAPGKERELVAGISQSGGSTYADSVKGRFTISRDNAKNTVYLQMNSLKPEDTAVYYCAKEFEWVGSPSTVDGLEYWGHGTQVTVSS | low polyreactivity |
| QVQLVESGGGLVQAGGSLRLSCAASGSIFTVNAMGWYRQAPGKERELVAAIDGSSGSTNYADSVKGRFTISRDNAKNTVYLQMNSLKPEDTAVYYCAADWSYEYGYWGQGTQVTVSS | low polyreactivity |
| QVQLVESGGGLVQAGGSLRLSCAASGSIFGTYAMGWYRQAPGKERELVAAISWSDGSTYYADSVKGRFTISRDNAKNTVYLQMNSLKPEDTAVYYCAKVYRSIGPNVSRYGLSYYYWGQGTQVTVSS | low polyreactivity |
| QVQLVESGGGLVQAGGSLRLSCAASGFTFPNYDMGWYRQAPGKERELVAAITSGGGRTNYADSVKGRFTISRDNAKNTVYFQMNSLKPEDTSVYFCAKTRVRGSEFGYWGQGTQLTVSS | low polyreactivity |
| QVQLVESGGGLVQAGGSLRLSCAASGLTFHRYAMGWYRQAPGKERELVAANNYSGGRTYYADSVKGRFTISRDNAKNTVYLQMNSLKPEDTAVYYCAAPRASGYYWGQGTQVTVSS | high polyreactivity |
| QVQLVESGGGLVQAGGSLRLSCAASGFTFIAYAKGWYRQAPGKERELVAAISRRGGSTYYADSVKGRFTISRDNAKNTVYLQMNSLKPEDTAVYYCAKESRKKTDYDYWGQGTQVTVSS | high polyreactivity |
| QVQLVESGGGLDQAGGSLRLSCAASGRTFWNYAMGWYRQAPGKERELVAVIRFSDGSTYYADSVKGRFTISRDNAKNTVYLQMNSLKPEDTAVYYCAAKGPRRWASGFDYWGQGTQVTVSS | low polyreactivity |
| QVQLVESGGGLVQAGGSLRLLCAASGFTFFRYAKGWYRQAPGKERELLATINWSGGRTYYADSVKGRFTISRDNAKNTVYLQMNSLKPEDTAVYYSNAYYPSSFWRMDYWGQGTQVTVSS | high polyreactivity |
| QVQLVESGGGLVQAGGSLRLSCAASGSIFHDNAMGWYRQAPGKERELVAAINRGGSTHYADSVKGRFTISRDNAKNTVYLQMNSLKPEDTAVYYCAADGFRPEVGYWGQGTQVTVSS | low polyreactivity |
